Sequences and labels used below:
B1: Kremen protein 1 (Homo sapiens), Q96MU8 (parent)
chain: MAPPAARLALLSAAALTLAARPAPSPGLGPECFTANGADYRGTQNWTALQGGKPCLFWNETFQHPYNTLKYPNGEGGLGEHNYCRNPDGDVSPWCYVAEHEDGVYWKYCEIPACQMPGNLGCYKDHGNPPPLTGTSKTSNKLTIQTCISFCRSQRFKFAGMESGYACFCGNNPDYWKYGEAASTECNSVCFGDHTQPCGGDGRIILFDTLVGACGGNYSAMSSVVYSPDFPDTYATGRVCYWTIRVPGASHIHFSFPLFDIRDSADMVELLDGYTHRVLARFHGRSRPPLSFNVSLDFVILYFFSDRINQAQGFAVLYQAVKEELPQERPAVNQTVAEVITEQANLSVSAARSSKVLYVITTSPSHPPQTVPGSNSWAPPMGAGSHRVEGWTVYGLATLLILTVTAIVAKILLHVTFKSHRVPASGDLRDCHQPGTSGEIWSIFYKPSTSISIFKKKLKGQSQQDDRNPLVSD
B2: Kremen protein 1 (Homo sapiens), Q96MU8 (parent)
chain: B1 chain
partner: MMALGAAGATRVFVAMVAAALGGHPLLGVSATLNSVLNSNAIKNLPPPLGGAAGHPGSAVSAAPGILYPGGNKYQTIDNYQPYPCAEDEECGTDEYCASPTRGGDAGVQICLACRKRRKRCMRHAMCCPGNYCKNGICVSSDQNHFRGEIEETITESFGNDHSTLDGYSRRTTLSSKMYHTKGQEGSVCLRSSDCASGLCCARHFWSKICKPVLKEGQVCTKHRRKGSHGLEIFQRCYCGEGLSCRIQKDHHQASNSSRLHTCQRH

The values below come from IntAct's records for PubMed 27524201.

In the first assay the parent is B1. To be noted: with lrp6_human LRP6, O75581.
lrp6_human LRP6, O75581, sequence (O75581 whole entry): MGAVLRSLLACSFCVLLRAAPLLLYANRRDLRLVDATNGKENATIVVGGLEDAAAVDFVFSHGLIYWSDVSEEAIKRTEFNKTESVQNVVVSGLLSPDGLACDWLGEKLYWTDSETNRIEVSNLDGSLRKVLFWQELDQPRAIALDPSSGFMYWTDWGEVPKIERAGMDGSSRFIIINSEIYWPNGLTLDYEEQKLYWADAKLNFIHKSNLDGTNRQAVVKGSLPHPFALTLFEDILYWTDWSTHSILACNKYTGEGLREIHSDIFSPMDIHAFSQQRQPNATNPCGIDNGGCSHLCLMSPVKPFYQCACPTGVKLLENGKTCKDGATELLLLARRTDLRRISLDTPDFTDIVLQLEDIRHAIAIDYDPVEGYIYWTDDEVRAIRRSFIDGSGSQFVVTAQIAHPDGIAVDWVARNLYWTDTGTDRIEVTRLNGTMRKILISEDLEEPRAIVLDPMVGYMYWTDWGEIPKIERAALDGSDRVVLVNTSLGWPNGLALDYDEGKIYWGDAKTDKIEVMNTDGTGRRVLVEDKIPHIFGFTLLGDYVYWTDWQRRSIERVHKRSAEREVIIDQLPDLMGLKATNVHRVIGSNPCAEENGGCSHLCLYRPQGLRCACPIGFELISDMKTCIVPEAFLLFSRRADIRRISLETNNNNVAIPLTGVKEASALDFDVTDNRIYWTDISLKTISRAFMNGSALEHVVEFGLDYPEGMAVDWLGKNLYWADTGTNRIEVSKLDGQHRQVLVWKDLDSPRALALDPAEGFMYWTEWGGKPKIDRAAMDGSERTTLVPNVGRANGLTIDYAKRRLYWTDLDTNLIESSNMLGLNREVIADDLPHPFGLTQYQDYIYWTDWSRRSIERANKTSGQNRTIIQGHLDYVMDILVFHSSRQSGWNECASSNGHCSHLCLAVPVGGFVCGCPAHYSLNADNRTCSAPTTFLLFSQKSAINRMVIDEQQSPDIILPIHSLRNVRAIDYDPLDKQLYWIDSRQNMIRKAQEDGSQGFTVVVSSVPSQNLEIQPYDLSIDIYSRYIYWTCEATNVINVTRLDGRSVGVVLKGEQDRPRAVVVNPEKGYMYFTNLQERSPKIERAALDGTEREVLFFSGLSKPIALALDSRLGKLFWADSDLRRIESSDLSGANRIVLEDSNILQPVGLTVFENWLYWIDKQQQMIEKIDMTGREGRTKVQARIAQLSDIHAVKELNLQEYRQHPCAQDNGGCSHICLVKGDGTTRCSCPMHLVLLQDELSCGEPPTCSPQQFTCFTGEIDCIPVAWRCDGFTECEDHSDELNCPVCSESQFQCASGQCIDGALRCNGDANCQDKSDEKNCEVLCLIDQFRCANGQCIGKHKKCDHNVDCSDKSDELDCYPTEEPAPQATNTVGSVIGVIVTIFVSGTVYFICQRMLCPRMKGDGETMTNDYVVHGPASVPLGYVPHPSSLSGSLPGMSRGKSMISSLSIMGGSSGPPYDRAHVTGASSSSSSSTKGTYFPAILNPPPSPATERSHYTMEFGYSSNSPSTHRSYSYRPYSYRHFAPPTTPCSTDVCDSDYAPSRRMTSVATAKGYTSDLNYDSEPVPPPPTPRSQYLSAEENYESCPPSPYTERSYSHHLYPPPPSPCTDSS
In the case of MAPPAARLALLSAAALTLAARPAPSPGLGPECFTANGADYRGTQNWTALQGGKPCLFWNETFQHPYNTLKYPNGEGGLGEHNYCRNPDGDVSPWCYVAEHEDGVYWKYCEIPACQMPGNLGCYKDHGNPPPLTGTSKTSNKLTIQTCISFCRSQRFKFAGMESGYACFCGNNPDYWKYGEAASTECNSVCFGDHTQPCGGDGRIILFDTLVGACGGNYSAMSSVVYSPDFPDTYATGRVCYWTIRVPGASHIHFSFPLFDIRDSADMVELLDGYTHRVLARFHGRSRPPLSFNVSLDFVILYFFSDRINQSQGFAVLYQAVKEELPQERPAVNQTVAEVITEQANLSVSAARSSKVLYVITTSPSHPPQTVPGSNSWAPPMGAGSHRVEGWTVYGLATLLILTVTAIVAKILLHVTFKSHRVPASGDLRDCHQPGTSGEIWSIFYKPSTSISIFKKKLKGQSQQDDRNPLVSD [A311S], the “effect of a mutation on the interaction” value is “disrupting interaction strength”.

Variants of B2 are the subject of a further assay. To be noted: with dkk1_human DKK1, O94907.
As for MAPPAARLALLSAAALTLAARPAPSPGLGPECFTANGADYRGTQNWTALQGGKPCLFWNETFQHPYNTLKYPNGEGGLGEHNYCRNPDGDVSPWCYVAEHEDGVYWKYCEIPACQMPGNLGCYKDHGNPPPLTGTSKTSNKLTIQTCISFCRSQRFKFAGMESGYACFCGNNPDYWKYGEAASTECNSNCSGDHTQPCGGDGRIILFDTLVGACGGNYSAMSSVVYSPDFPDTYATGRVCYWTIRVPGASHIHFSFPLFDIRDSADMVELLDGYTHRVLARFHGRSRPPLSFNVSLDFVILYFFSDRINQAQGFAVLYQAVKEELPQERPAVNQTVAEVITEQANLSVSAARSSKVLYVITTSPSHPPQTVPGSNSWAPPMGAGSHRVEGWTVYGLATLLILTVTAIVAKILLHVTFKSHRVPASGDLRDCHQPGTSGEIWSIFYKPSTSISIFKKKLKGQSQQDDRNPLVSD [V189N;F191S], the “effect of a mutation on the interaction” value is given as “disrupting interaction strength”. Same read-out and setting: the entry for MAPPAARLALLSAAALTLAARPAPSPGLGPECFTANGADYRGTQNWTALQGGKPCLFWNETFQHPYNTLKYPNGEGGLGEHNYCRNPDGDVSPWCYVAEHEDGVYWKYCEIPACQMPGNLGCYKDHGNPPPLTGTSKTSNKLTIQTCISFCRSQRFKFAGMESGYACFCGNNPDYWKYGEAASTECNSVCFGDHTQPCGGDGRIILFDTLVGACGGNYSAMSSVVYSPDFPDTYATGRVCYWTIRVPGASHIHFSFPLFDIRDSADMVELLDGYTHRVLARFHGRSRPPLSFNVSLDFVILYFFSDRINQSQGFAVLYQAVKEELPQERPAVNQTVAEVITEQANLSVSAARSSKVLYVITTSPSHPPQTVPGSNSWAPPMGAGSHRVEGWTVYGLATLLILTVTAIVAKILLHVTFKSHRVPASGDLRDCHQPGTSGEIWSIFYKPSTSISIFKKKLKGQSQQDDRNPLVSD [A311S] is “disrupting interaction strength”. Still for that read-out and setting: the same measure for MAPPAARLALLSAAALTLAARPAPSPGLGPECFTANGADYRGTQNWTALQGGKPCLFWNETFQHPYNTLKYPNGEGGLGEHNYCRNPDGNVSPWCYVAEHEDGVYWKYCEIPACQMPGNLGCYKDHGNPPPLTGTSKTSNKLTIQTCISFCRSQRFKFAGMESGYACFCGNNPDYWKYGEAASTECNSVCFGDHTQPCGGDGRIILFDTLVGACGGNYSAMSSVVYSPDFPDTYATGRVCYWTIRVPGASHIHFSFPLFDIRDSADMVELLDGYTHRVLARFHGRSRPPLSFNVSLDFVILYFFSDRINQAQGFAVLYQAVKEELPQERPAVNQTVAEVITEQANLSVSAARSSKVLYVITTSPSHPPQTVPGSNSWAPPMGAGSHRVEGWTVYGLATLLILTVTAIVAKILLHVTFKSHRVPASGDLRDCHQPGTSGEIWSIFYKPSTSISIFKKKLKGQSQQDDRNPLVSD [D90N]: “disrupting interaction strength”.
